In patent US20200190192A1 (SUTRO BIOPHARMA, published 2020):
Changes are numbered by the printed parent chain. Like-named read-outs stand apart in the source and are kept apart here. Values belong to the binder of their own block, whether it stands above or below them.

Assays:
[1] = biological target: T1, recombinant cynomolgus Tim-3-Fc (R&D Systems, 7914-TM) (cynomolgus monkey); assay: ELISA, coated cyno Tim-3-Fc
T1 construct: Bought protein; also called cyTim-3-Fc; Cyno Tim-3-Fc; not shown: Fc of the bought fusion protein
T1 chain: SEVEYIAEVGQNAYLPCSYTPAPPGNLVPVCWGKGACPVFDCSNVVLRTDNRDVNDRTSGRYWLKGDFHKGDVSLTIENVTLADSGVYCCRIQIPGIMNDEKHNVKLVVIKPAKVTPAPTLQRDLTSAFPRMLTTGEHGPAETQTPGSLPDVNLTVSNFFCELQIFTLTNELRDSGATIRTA

[2] = biological target: T2, recombinant human Tim-3-Fc (R&D Systems, 2365-TM) (human, UniProt Q8TDQ0 22-202, biotinylated in the Galectin-9 competition ELISA (sites not given)); assay: SPR Biacore, human Tim-3-Fc
T2 construct: Bought protein; also called huTim-3-Fc; biotinylated Tim-3-Fc; not shown: Fc of the bought fusion protein

[3] = biological target: T2, recombinant human Tim-3-Fc (R&D …); assay: ELISA, coated human Tim-3-Fc
[4] = biological target: T3, human Tim-3 expressed on the cell surface (human, UniProt Q8TDQ0 22-301); assay: flow cytometry, CHO-human Tim-3 cells
T3 construct: also called hTim-3; Human Tim-3 (CHO)

[5] = biological target: T4, human Tim-3 (Biacore analyte; TIM-3-Fc or TIM-3-HIS, not said which) (human, UniProt Q8TDQ0 22-202); assay: SPR Biacore, human Tim-3 (Fc or HIS not said)
T4 construct: also called TIM-3 antigen; not shown: Fc or HIS tag

[6] = biological target: T2, recombinant human Tim-3-Fc (R&D …); assay: competition ELISA, biotin-Tim-3-Fc vs coated Galectin-9
[7] = biological target: T3, human Tim-3 expressed on the cell …; assay: cell binding (flow cytometry; cells not given)
[8] = biological target: T5, cynomolgus Tim-3 expressed on CHO cells (cynomolgus monkey); assay: flow cytometry, CHO-cyno Tim-3 cells
T5 construct: also called cTim-3; Cyno Tim-3 (CHO)
T5 chain: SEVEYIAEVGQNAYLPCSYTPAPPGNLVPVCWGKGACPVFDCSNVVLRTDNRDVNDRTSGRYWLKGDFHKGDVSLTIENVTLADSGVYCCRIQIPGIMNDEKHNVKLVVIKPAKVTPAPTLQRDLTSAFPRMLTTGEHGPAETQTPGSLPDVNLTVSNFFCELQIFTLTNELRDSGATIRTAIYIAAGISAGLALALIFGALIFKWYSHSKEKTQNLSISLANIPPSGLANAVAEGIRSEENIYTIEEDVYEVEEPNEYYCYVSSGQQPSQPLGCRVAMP

[9] = biological target: T6, human PD-1 expressed on CHO cells (human, UniProt Q15116 25-288); assay: flow cytometry, CHO-human PD-1 cells
T6 construct: also called hPD-1; CHO-hPD-1

[10] = biological target: T3, human Tim-3 expressed on the cell …; assay: flow cytometry, CHO-human Tim-3 cells; remark: listed apart in the source
[11] = biological target: T7, biotinylated recombinant human PD-1 (AcroBiosystems) (human, UniProt Q15116 25-167, limits assumed, biotinylated (sites not given)); assay: competition, flow cytometry: biotin-PD-1 binding to CHO-human PD-L1 cells
T7 construct: Bought protein; also called biotinylated PD-1

[12] = biological target: T2, recombinant human Tim-3-Fc (R&D …); assay: AlphaLISA bridging: Tim-3-Fc acceptor beads + PD-1 donor beads (signal needs both)
[13] = biological target: T5, cynomolgus Tim-3 expressed on CHO cells; assay: flow cytometry, CHO-cyno Tim-3 cells
[14] = biological target: T2, recombinant human Tim-3-Fc (R&D …); assay: competition ELISA, biotin-Tim-3-Fc vs coated Galectin-9; remark: listed apart in the source
[15] = biological target: T5, cynomolgus Tim-3 expressed on CHO cells; assay: cell binding, CHO-cyno Tim-3 cells
[16] = biological target: T3, human Tim-3 expressed on the cell …; assay: cell binding, CHO-human Tim-3 cells
[17] = biological target: T4, human Tim-3 (Biacore analyte; TIM-3-Fc …); assay: kinetics; method and analyte not given

EC50 [1]: 6.19 nM | Kd [2]: 2.27 nM | koff [2]: 0.000458 s⁻¹ | kon [2]: 202000 M⁻¹ s⁻¹ | EC50 [3]: 0.24 nM | Kd [4]: 0.5 nM | Kd [5]: 64.7 nM | koff [5]: 0.0219 s⁻¹ | kon [5]: 338000 M⁻¹ s⁻¹ | IC50 [6]: 1.1 nM | Kd [7]: 5.6 nM
B1: SRP1497-A05 (antibody, V domains shown)
VH: EVQLVESGGGLVQPGGSLRLSCAASGFNISNYAIHWVRQAPGKGLEWVADITPDGGYTDYADSVKDRFTISADTSKNTAYLQMNSLRAEDTAVYYCARGYVYRMWDSFDYWGQGTLVTVSS
VL: not shown
notes: IgG with trastuzumab LC; HIS- and FLAG-tagged

Kd [8]: 29 nM | Kd [9]: 1.3 nM | Kd [10]: 4.4 nM | IC50 [11]: 11 nM | EC50 [12]: 0.05 nM
B2: 1353-G10-scFv × 1649-A01-Fab (bispecific antibody, V domains shown)
VH 1: EVQLVQSGAEVKKPGASVKVSCKASGYRFPHYGISWVRQAPGQGLEWMGWISAYNGNTNYAQKLQGRVTMTTDTSTNTAYMELRSLRSDDTAVYYCARDVDYGTGSGYWGQGTLVTVSS
VL 1: SYELTQPPSVSVSPGQTARITCSGDALPKQYAYWYQQKPGQAPVMVIYKDTERPSGIPERFSGSSSGTKVTLTISGVQAEDEADYYCQSADNSITYRVFGGGTKVTVL
VH 2: B1 VH with N31R, A33Y, D50G, D54V, G55R, D59E, F108Y
VL 2: not shown
notes: scFv-Fc × Fab bi-specific; also called Sample C; protein sample C

EC50 [1]: 13.7 nM | Kd [2]: 2.95 nM | koff [2]: 0.000544 s⁻¹ | kon [2]: 185000 M⁻¹ s⁻¹ | EC50 [3]: 0.34 nM | IC50 [6]: 1 nM | Kd [7]: 1.54 nM
B3: SRP1497-A02 (antibody, V domains shown)
VH: B1 VH with Q13R, D66G
VL: not shown
notes: as for B1

EC50 [1]: 22.6 nM | Kd [2]: 2.15 nM | koff [2]: 0.000425 s⁻¹ | kon [2]: 197000 M⁻¹ s⁻¹ | EC50 [3]: 0.3 nM | IC50 [6]: 0.8 nM | Kd [7]: 1.17 nM
B4: SRP1497-A01 (antibody, V domains shown)
VH: B1 VH with D66G
VL: not shown
notes: IgG with trastuzumab LC, cell-free expressed; constructs were HIS- and FLAG-tagged

Kd [13]: 0.5 nM | Kd [4]: 0.4 nM | Kd [5]: 17.4 nM | koff [5]: 0.00117 s⁻¹ | kon [5]: 67100 M⁻¹ s⁻¹ | IC50 [14]: 0.26 nM
B5: SRP1649-A01 (antibody, V domains shown)
VH: B1 VH with N31R, A33Y, D50G, D54V, G55R, D59E, F108Y
VL: not shown
notes: as for B1

Kd [13]: 5.6 nM | Kd [4]: 0.2 nM | Kd [5]: 17.3 nM | koff [5]: 0.00393 s⁻¹ | kon [5]: 227000 M⁻¹ s⁻¹ | IC50 [14]: 0.63 nM
B6: SRP1649-F06 (antibody, V domains shown)
VH: B1 VH with S30G, D54G, G55Q, D59E, F108Y
VL: not shown
notes: as for B1

binding result [15]: no binding | binding result [16]: binds | Kd [17]: 0.431 nM | koff [17]: 0.000166 s⁻¹ | kon [17]: 386000 M⁻¹ s⁻¹
B7: Mouse hybridoma clone 2D5 (antibody, V domains shown)
VH: EVQLQQSGPELVKPGTSMKISCRASGYPFIGYTMNWVKQSHGGNLEWIGLINPYNGITTYNQKFKGRATLSVDTSSTIAYMELLSLTSDDSAEYYCARSFFYGSSNDWLVYWGQGTLVTVSA
VL: DVLMTQTPLSLPVSLGDQASISCRSSQSIVHTNGNTYLEWYLQKPGQSPKLLIYKVSNRFSGVPDRFSGSGSGTDFTLKISRVEAEDLGVYYCFQGSHVPWTFGGGTELEIK
notes: Mouse antibody; also called 421.51.2.2D5.5E9

binding result [15]: binds | binding result [16]: binds | Kd [17]: 1.5 nM | koff [17]: 0.000334 s⁻¹ | kon [17]: 223000 M⁻¹ s⁻¹
B8: Mouse hybridoma clone 22E11 (antibody, V domains shown)
VH: QVQLKESGPDLVAPSQSLSITCTVSGFSLTSYGVHWVRQPPGKGLEWLVVIWSDGSTTYNSALKSRLTISKDNSKSQVFLKMNSLQTDDTAMYYCARQGGYRYDDAMDYWGQGTSVAVSS
VL: DIVLTQSPASLAVSLGQRATISCKASQSVDYDGNSYVNWYQQKPGQPPKLLIYAASNLESGIPARFSGSGSGTDFTLNIHPVEEEDAATYYCQQSNEDPYTFGGGTKLEIK
notes: Mouse antibody; also called m22E11; 250.180.2.22E11
